For data set [1], the system named is HEK293-hACE2 xenografts. Further details: species or system mice. The conditions noted are these: mouse, in vivo. As for the experimental part:
Tumors were monitored and imaging commenced after reaching >200 mm3. […] PET images were reconstructed by an iterative three-dimensional maximum a priori algorithm. […] At 1, 4, and 20 h post-injection, the animals were sacrificed for tissue dissection. The organs of interest were collected, rinsed, blotted, weighed, and counted with a γ-counter (Perkin Elmer Wizard2). The total injected radioactivity per animal was determined from the measured radioactivity in an aliquot of the injectate. Data were expressed as a percent of injected activity per gram of tissue (% IA/g).

Data set [2] is classed as physicochemical. As for the experimental part:
The solution was analyzed by radio-HPLC to assess the radiochemical purity. The HPLC was eluted with water-CH3CN system (Phase A: 0.1% TFA H2O; Phase B: 0.1% TFA CH3CN) using gradient elution (0-5 min 20% B; 5-10 min 20%-80% B; 10-12 min 80% B; 12-15 min 80%-20% B) at a flow rate of 1.0 mL/min. The radiolabeling yield was 59.9±3.9% (non-decay corrected, n=10) and the radiochemical purity was over 95%. […] At 1 h, 2 h, and 4 h time points, 10 μL aliquot was analyzed by radio-HPLC to assess the radiochemical purity.

The nature of data set [3]: Acute toxicity test / body weight monitoring in mice. The class given is in vivo. As for the experimental part:
The experiment was carried out in 10 mice at 4-weeks of age. […] The injection was repeated on day 0, day 4, day 11, day 18 and day 25, and the weight of the mice was recorded.

Data set [4] addresses T1, ACE2 (Homo sapiens, UniProt Q9BYF1). Conditions: in vivo.
The target of data set [5] is T1, ACE2. Conditions: in vivo. This is another data set of the same source.
Data set [6] can be described thus: clinical. Conditions: human, in vivo, iv, total radioactivity, SUVmax.
Data set [7] concerns the target T1, ACE2. Nature of the data set: 68Ga-HZ20 PET/CT in healthy volunteers (SUVmax).
For data set [8] the following is noted: in vivo. From the text: Ex vivo biodistribution analysis of the tracer in these hACE2 expressing (and vehicle control) tumors recapitulated these imaging findings (FIG. 5A).
For data set [9], the target named is T1, ACE2. Further details: from tissue; host or cells: organs of hACE2 transgenic mice, imaged in vivo by PET; species or system mice. Conditions: mouse, in vivo. From the text:
PET images were reconstructed by an iterative three-dimensional maximum a priori algorithm.

Setting [10] is: healthy volunteers average, 90 min.

Like-named read-outs stand apart in the source and are kept apart here.

T1 sequence (Q9BYF1 18-805): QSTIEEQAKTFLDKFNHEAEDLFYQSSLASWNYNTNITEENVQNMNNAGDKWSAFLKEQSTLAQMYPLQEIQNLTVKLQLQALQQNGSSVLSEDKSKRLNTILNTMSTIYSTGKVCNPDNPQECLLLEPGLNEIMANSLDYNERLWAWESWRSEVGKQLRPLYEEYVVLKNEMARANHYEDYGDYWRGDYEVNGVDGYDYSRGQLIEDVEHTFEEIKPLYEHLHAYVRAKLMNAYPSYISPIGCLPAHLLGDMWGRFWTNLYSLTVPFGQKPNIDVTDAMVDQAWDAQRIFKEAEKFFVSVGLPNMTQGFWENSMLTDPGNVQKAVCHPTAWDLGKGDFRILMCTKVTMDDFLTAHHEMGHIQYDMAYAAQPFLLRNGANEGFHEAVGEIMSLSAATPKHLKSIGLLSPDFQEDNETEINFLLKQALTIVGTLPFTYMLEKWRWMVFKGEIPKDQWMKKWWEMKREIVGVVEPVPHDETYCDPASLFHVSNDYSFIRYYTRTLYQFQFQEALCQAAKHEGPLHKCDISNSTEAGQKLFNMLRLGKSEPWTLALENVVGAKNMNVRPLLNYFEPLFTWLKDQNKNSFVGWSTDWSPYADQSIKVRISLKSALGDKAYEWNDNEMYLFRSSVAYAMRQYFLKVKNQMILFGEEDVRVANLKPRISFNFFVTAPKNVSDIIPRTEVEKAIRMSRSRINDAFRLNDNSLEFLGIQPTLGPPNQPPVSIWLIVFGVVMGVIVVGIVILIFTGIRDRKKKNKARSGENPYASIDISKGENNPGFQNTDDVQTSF

For `CC(C)C[C@H](NC(=O)[C@@H]1CCCN1C(=O)[C@H](CO)NC(=O)[C@H](CS)NC(=O)[C@H](Cc1c[nH]cn1)NC(=O)[C@H](CO)NC(=O)[C@H](Cc1ccc(O)cc1)NC(=O)[C@H](CC(=O)O)NC(=O)CNC(=O)CCC(C(=O)O)N1CCN(CC(=O)O)CCN(CC(=O)O)CC1)C(=O)N[C@@H](CCCNC(=N)N)C(=O)N[C@@H](Cc1ccc(O)cc1)C(=O)N[C@@H](Cc1ccc(O)cc1)C(=O)N1CCC[C@H]1C(=O)N[C@@H](Cc1c[nH]c2ccccc12)C(=O)N[C@@H](Cc1c[nH]c2ccccc12)C(=O)N[C@@H](CCCCN)C(=O)N[C@@H](CS)C(=O)N[C@H](C(=O)N[C@@H](Cc1ccc(O)cc1)C(=O)N1CCC[C@H]1C(=O)N[C@@H](CC(=O)O)C(=O)N1CCC[C@H]1C(=O)N[C@@H](CCC(=O)O)C(=O)NCC(=O)NCC(=O)NCC(N)=O)[C@@H](C)O` (stereo partly shown) [64Cu-HZ-19, metal not drawn], in data set [1], the “clearance from the blood pool” value was “rapid” and the liver retention result is reported as “increased liver retention”.
For the molecule `CC(C)C[C@@H]1NC(=O)[C@@H]2CCCN2C(=O)[C@H](CO)NC(=O)[C@@H](NC(=O)[C@H](Cc2c[nH]cn2)NC(=O)[C@H](CO)NC(=O)[C@H](Cc2ccc(O)cc2)NC(=O)[C@H](CC(=O)O)NC(=O)CNC(=O)CN2CCN(CC(=O)O)CCN(CC(=O)O)CCN(CC(=O)O)CC2)CSSC[C@@H](C(=O)N[C@H](C(=O)N[C@@H](Cc2ccc(O)cc2)C(=O)N2CCC[C@H]2C(=O)N[C@@H](CC(=O)O)C(=O)N2CCC[C@H]2C(=O)N[C@@H](CCC(=O)O)C(=O)NCC(=O)NCC(=O)NCC(N)=O)[C@@H](C)O)NC(=O)[C@H](CCCCN)NC(=O)[C@H](Cc2c[nH]c3ccccc23)NC(=O)[C@H](Cc2c[nH]c3ccccc23)NC(=O)[C@@H]2CCCN2C(=O)[C@H](Cc2ccc(O)cc2)NC(=O)[C@H](Cc2ccc(O)cc2)NC(=O)[C@H](CCCNC(=N)N)NC1=O` [68Ga-HZ20, metal not drawn], the stability entry in data set [2] is “stable within 2 h”. Further, the acute toxicity test entry in [3] (mouse, in vivo) is on record as “well tolerated”. Moreover, in data set [4], the “SUVmax difference right minus left, confidence interval, eyes” value was −0.09 to 0.10; the “SUVmax difference right minus left, confidence interval, lungs” value is recorded as −0.02 to 0.10; the “SUVmax difference right minus left, confidence interval, renal cortex” value is 3.77 to 10.90; the “SUVmax difference right minus left, confidence interval, testis” value is listed as −0.38 to 0.25. Also, in [4], the “SUVmax, breast” value amounted to 2.72; the “SUVmax, lung” value is on record as “only low SUVmax”; the “SUVmax, small intestine” value is listed as 0.48; the “SUVmax, testis” value is reported as 5.57. Further, the blood-brain barrier penetration entry in data set [4] is given as “poor blood-brain barrier penetration”. In data set [5], the “SUVmax, gallbladder” value amounted to 4.32; the “SUVmax, left testis” value worked out at 8.65; the “SUVmax, renal cortex” value came to 18.40; the “SUVmax, renal cortex, left kidney” value is 11.59. Further, in [5], the “SUVmax, renal cortex, right kidney” value stood at 18.40 and the “SUVmax, right testis” value worked out at 8.79. The SUV at 1.5 h in data set [6] (both, gallbladder) was determined as 2.14 ± 0.16 SUV. Also, the SUV in [6] (both, other organs (relatively low uptake)) was under 1.5 SUV. Moreover, the SUV in data set [6] (both, renal cortex, corpus luteum, and testis (high uptake)) was over 2.5 SUV. Also, the SUV in data set [6] (female, breast, gallbladder, ovary, nasal mucosa, and esophagus (median uptake)) stood at 1.5 SUV. The SUV in [6] (male, conjunctiva) stood at 1.5 SUV. The “SUVmax, breast, young group” value in data set [7] (female volunteers <50 years, 90 min) is listed as 2.21±0.25. The “SUVmax, breast, old group” value in data set [7] (female volunteers ≥50 years, 90 min) was determined as 1.35±0.22. In [7] (healthy females, 90 min), the “SUVmax, ovary” value is recorded as 2.12±1.42 and the “SUVmax, uterus” value worked out at 2.41±0.34. The “SUVmax, testis” value in data set [7] (healthy males, 90 min) came to 4.46±0.30. Moreover, in data set [7] (healthy volunteers), the “SUVmax, left testis” value amounted to 4.58±0.40; the “SUVmax, renal cortex, left kidney” value is reported as 22.18±1.78; the “SUVmax, renal cortex, right kidney” value was 25.67±1.39; the “SUVmax, right testis” value is on record as 4.51±0.54. Besides, in data set [7] (setting [10]), the “SUVmax, conjunctiva” value is on record as 1.71±0.08; the “SUVmax, esophagus” value stood at 1.63±0.11; the “SUVmax, liver” value is on record as 1.59±0.14; the “SUVmax, pancreas” value is given as 1.63±0.24. Besides, in data set [7] (setting [10]), the “SUVmax, rectum” value is reported as 1.46±0.13; the “SUVmax, renal cortex” value was found to be 25.67±1.39; the “SUVmax, renal medulla” value is on record as 18.34±1.42.
Regarding `CC(C)C[C@@H]1NC(=O)[C@@H]2CCCN2C(=O)[C@H](CO)NC(=O)[C@@H](NC(=O)[C@H](Cc2c[nH]cn2)NC(=O)[C@H](CO)NC(=O)[C@H](Cc2ccc(O)cc2)NC(=O)[C@H](CC(=O)O)NC(=O)CNC(=O)CCC(C(=O)O)N2CCN(CC(=O)O)CCN(CC(=O)O)CC2)CSSC[C@@H](C(=O)N[C@H](C(=O)N[C@@H](Cc2ccc(O)cc2)C(=O)N2CCC[C@H]2C(=O)N[C@@H](CC(=O)O)C(=O)N2CCC[C@H]2C(=O)N[C@@H](CCC(=O)O)C(=O)NCC(=O)NCC(=O)NCC(N)=O)[C@@H](C)O)NC(=O)[C@H](CCCCN)NC(=O)[C@H](Cc2c[nH]c3ccccc23)NC(=O)[C@H](Cc2c[nH]c3ccccc23)NC(=O)[C@@H]2CCCN2C(=O)[C@H](Cc2ccc(O)cc2)NC(=O)[C@H](Cc2ccc(O)cc2)NC(=O)[C@H](CCCNC(=N)N)NC1=O` (stereo partly shown) [64Cu-HZ20, metal not drawn], in [1], the “clearance from the blood pool” value is “rapid”; the hACE2 tumor binding entry is on record as “Greater hACE2 tumor binding”; the kidney clearance entry is listed as “greater kidney clearance”; the “signal distribution by PET” value is “highest signal in the kidneys, high intensity in HEK293-hACE2 xenografts, and moderate in liver”. The “tissue retention by imaging or organ counting” value in data set [8] is on record as “limited or very low tissue retention”. Further, in [9], the “accumulation in hACE2 transgenic mice compared to wild-type strain” value was “significantly higher accumulation in the heart, lung, liver, and intestine”.
Regarding `CC(=O)NCC(=O)N[C@@H](CC(=O)O)C(=O)N[C@@H](Cc1ccc(O)cc1)C(=O)N[C@@H](CO)C(=O)N[C@@H](Cc1cnc[nH]1)C(=O)N[C@H]1CSSC[C@@H](C(=O)N[C@H](C(=O)N[C@@H](Cc2ccc(O)cc2)C(=O)N2CCC[C@H]2C(=O)N[C@@H](CC(=O)O)C(=O)N2CCC[C@H]2C(=O)N[C@@H](CCC(=O)O)C(=O)NCC(=O)NCC(=O)NCC(N)=O)[C@@H](C)O)NC(=O)[C@H](CCCCN)NC(=O)[C@H](Cc2c[nH]c3ccccc23)NC(=O)[C@H](Cc2c[nH]c3ccccc23)NC(=O)[C@@H]2CCCN2C(=O)[C@H](Cc2ccc(O)cc2)NC(=O)[C@H](Cc2ccc(O)cc2)NC(=O)[C@H](CCCNC(=N)N)NC(=O)[C@H](CC(C)C)NC(=O)[C@@H]2CCCN2C(=O)[C@H](CO)NC1=O` [DX600], the “body weight, experimental group versus control group” value in [3] (200 μg/200 μL on day 0, 4, 11, 18 and 25) is recorded as “no significant difference”. Besides, in data set [3] (experimental group n=5), the “body weight, start of monitoring” value stood at 26.5 ± 5.2 g. For the same molecule, the “body weight, end of monitoring” value in data set [3] (experimental group n=5, 25 days) was 41.2 ± 3.1 g.

The values are drawn from patent US20220001039A1, “COMPOSITIONS AND METHODS FOR DETECTING ACE2 EXPRESSION PROFILES” (Washington University, priority 2020, published 2022).
